Source: US20210198347A1 (Chugai, published 2021)

T1: recombinant human C1s CCP1-CCP2-SP-His (human, UniProt P09871 292-688)
T1 construct: Truncated protein lacking the CUB1-EGF-CUB2 domain; also called human C1s CCP1-CCP2-SP M292-D688
T1 sequence: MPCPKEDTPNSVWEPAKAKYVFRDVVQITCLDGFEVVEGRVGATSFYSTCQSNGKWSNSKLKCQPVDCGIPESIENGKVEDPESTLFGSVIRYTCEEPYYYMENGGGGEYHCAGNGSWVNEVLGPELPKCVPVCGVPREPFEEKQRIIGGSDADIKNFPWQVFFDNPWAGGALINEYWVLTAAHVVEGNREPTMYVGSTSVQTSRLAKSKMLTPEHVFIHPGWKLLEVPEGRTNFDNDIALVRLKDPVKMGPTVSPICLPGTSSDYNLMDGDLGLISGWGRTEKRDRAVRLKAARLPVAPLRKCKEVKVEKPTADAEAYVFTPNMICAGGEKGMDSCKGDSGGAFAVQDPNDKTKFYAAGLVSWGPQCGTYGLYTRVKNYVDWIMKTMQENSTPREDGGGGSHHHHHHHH

T2: recombinant human C1r2s2 Flag/His tetramer (human, UniProt P09871 16-688; P00736 18-705)
T2 construct: whole entries named; also called hc1r2s2; rC1r2s2
T2 chain 1: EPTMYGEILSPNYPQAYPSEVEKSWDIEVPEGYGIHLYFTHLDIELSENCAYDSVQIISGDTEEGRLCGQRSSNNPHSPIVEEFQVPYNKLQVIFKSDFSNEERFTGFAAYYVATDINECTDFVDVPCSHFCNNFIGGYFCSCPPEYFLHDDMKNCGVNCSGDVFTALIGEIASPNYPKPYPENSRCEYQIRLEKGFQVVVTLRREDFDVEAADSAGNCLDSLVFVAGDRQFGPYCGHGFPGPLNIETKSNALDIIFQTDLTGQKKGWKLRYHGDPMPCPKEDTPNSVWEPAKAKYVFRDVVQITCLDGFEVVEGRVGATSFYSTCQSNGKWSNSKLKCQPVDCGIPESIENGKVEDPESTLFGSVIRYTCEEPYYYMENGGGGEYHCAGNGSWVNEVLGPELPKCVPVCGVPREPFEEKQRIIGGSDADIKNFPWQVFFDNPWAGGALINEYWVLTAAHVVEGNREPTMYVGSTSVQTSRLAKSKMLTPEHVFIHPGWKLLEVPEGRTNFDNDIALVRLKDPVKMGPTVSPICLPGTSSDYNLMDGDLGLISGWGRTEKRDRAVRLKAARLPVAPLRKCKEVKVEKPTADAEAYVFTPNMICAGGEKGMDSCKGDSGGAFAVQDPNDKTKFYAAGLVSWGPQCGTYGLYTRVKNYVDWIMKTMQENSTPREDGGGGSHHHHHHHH
T2 chain 2: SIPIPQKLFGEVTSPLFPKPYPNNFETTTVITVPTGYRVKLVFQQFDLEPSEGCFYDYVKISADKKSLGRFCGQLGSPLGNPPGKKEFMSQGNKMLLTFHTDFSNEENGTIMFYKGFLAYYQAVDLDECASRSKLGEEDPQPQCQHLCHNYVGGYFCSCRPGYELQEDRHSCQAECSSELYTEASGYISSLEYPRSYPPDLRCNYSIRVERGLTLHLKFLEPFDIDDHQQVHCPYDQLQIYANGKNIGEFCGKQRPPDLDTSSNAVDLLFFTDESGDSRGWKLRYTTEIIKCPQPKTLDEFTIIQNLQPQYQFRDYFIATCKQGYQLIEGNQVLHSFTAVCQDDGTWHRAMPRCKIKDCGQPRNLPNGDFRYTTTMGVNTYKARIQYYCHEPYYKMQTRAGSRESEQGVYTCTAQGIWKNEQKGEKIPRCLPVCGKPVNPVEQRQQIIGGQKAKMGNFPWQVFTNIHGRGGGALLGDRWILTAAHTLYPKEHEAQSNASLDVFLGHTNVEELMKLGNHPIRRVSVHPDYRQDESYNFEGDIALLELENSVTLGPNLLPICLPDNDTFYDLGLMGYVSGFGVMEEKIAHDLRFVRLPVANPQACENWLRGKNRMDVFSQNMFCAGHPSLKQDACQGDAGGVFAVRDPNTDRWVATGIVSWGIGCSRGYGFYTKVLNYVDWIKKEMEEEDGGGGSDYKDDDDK

B1: COS0547gg-SG1148 (antibody, human IgG1, kappa, V domains shown)
VH: QSLEESGGRLVTPGTPLTLTCTASGFSLSSYHMDWVRQAPGKGLEWIGIITYTGDTYYATWAKGRFTISKTSSTTVDLKMASLTTEDTATYFCARRQYDAYNVWGPGTLVTVSS
VL: AYDMTQTPASVEVAVGGTVTIKCQASQSINNYLAWYQQKPGQPPKLLIYYASTLASGVPSRFKGSRSGTEFTLTISGVECADAATYYCQHGYYTSSNIDSVFGGGTKVEIKR
B2: COS0631gg-SG1148 (antibody, human IgG1, kappa, V domains shown)
VH: QSVEESGGRLVTPGTPLTLTCTVSGFSLSRYSMGWVRQAPGKGLEWIGIIYADGGAYYASWAKGRFTISKTSTTMDLKVTSPTTEDTATYFCARGQFINSNEFFNPWGPGTLVTVSS
VL: QVLTQTASSVSAVVGGTVTINCQASQSLHNNKNLAWYQQKPGQPPRLLIYYASTLASGVSSRFKGSGSGTQFTLTISDLECDDAATYYCAGEFSCSNGDCNAFGGGTKVEIKR
B3: COS0637cc-SG1148 (antibody, human IgG1, kappa, V domains shown)
VH: QSLEESGGRLVTPGTPLTLTCTASGFSLSAYAMNWVRQAPGKGLEWIGLIYGSGSTFYASWAKGRFTISKTSTTVDLKMTSLTTEDTATYFCARGRSVNYNSDFKLWGPGTLVTVSS
VL: QVLTQTPSSVSAAVGGTVTINCQASQSLHDKKNLAWYQHKPGQRPNLLIYGASTLESGVPSRFKGSGSGTEYTLTISDLECDDAAAYYCQGEFSCSSADCNTFGGGTKVEIKR
B4: COS0499ee-SG1148 (antibody, human IgG1, kappa, V domains shown)
VH: QSLEESGGRLVTPGTPLTLTCTASGFSLSNYNMAWVRQAPGKGLEWIGIIETTTNTYYARWARGRFTISKTSSTTVDLQIASPTTEDTATYFCGRRVSNSHDLWGPGTLVTVSS
VL: AYDMTQTPASVSAAVGGTVTINCQASQTIGGWCAWYQQKPGQPPKLLIYKASTLASGVSSRFKGSGSGTEFALTISDLECDDAATYYCQHGYYTSSTIENTFGGGTKVEIKR
notes: also called COS499; COS499ee(-SG1148)
B5: COS0448oo-SG1148 (antibody, human IgG1, kappa, V domains shown)
VH: QSVEESGGRLVTPGTPLTLTCTVSGFSLSNYGMIWVRQAPGEGLEYIGFVSGSGSAYYANWVKGRFTISKTSTTVDLKMTSLTTEDTATYFCARGAYNTDSYSYSLYYGMDLWGPGTLVTVSS
VL: QIVMTQTPASVEVAVGGTVTIKCQASQSIYSYLSWYQQKPGQPPKLLIYGASTLASGVPSRFKGSRSGTEFTLTISDLECADAATYYCQSNYATTTTYGTFGGGTKVEIKR
notes: Rabbit B-cell derived variable regions; also called COS448; COS44800(-SG1148)

These binders were tested against T1, recombinant human C1s CCP1-CCP2-SP-His (assay: SPR (BIACORE T200, 37 degrees C, pH 7.4, 1.2 mM CaCl2), antibody captured by protein A/G).

Binder	binding result
B1	no binding (tested: 100 nM)
B2	no binding (tested: 100 nM)
B3	no binding (tested: 100 nM)
B4	no binding (tested: 100 nM)
B5	no binding (tested: 100 nM)

Target: T2, recombinant human C1r2s2 Flag/His …
Test: SPR displacement (37 degrees C, pH 7.4): C1r2s2 captured by anti-His, C1q 100 nM pre-bound, antibody 500 nM at 10 micro L/min; time from antibody injection until the antibody sensorgram falls below the buffer sensorgram; competitor native human C1q
Experimental: An anti-His antibody (GE-Healthcare) was immobilized onto all flow cells of a CM4 sensor chip using an amine coupling kit (GE Healthcare). The antibodies, recombinant human C1r2s2 Flag/His tetramer and native human C1q (Comptech A099) were prepared in pH 7.4 buffer (20 mM ACES, 150 mM NaCl, 1.2 mM CaCl₂, 1 mg/mL BSA (IgG-free), 1 mg/mL CMD, 0.05% Tween 20, 0.005% NaN₃, pH 7.4). Recombinant human C1r2s2 Flag/His tetramer was first captured onto the sensor surface by the anti-His antibody (“hc1r2s2” in FIG. 2A). The capture levels were aimed at 200 resonance unit (RU). Native human C1q was injected at 100 nM to have a capture of 200 RU (“hc1q” in FIG. 2A), followed by antibody injection at 500 nM at 10 micro L/min for 1200 sec immediately. The sensor surface was regenerated each cycle with 10 mM Glycine-HCl (pH 1.5). For the antibodies with the C1q displacement function, the response unit of Sensorgram 2 (large dotted line; “C1r2s2+C1q+Ab” in FIGS. 2A and 2C) is lower than the response unit in Sensorgram 1 (small dotted line; “C1r2s2+C1q+buffer” in FIGS. 2A and 2C) after the time point where Sensorgrams 1 and 2 cross (“time point of crossover”). Depending on the time when Sensorgram 2 crosses over Sensorgram 1, COS0499 was categorized as a fast displacement variant. […] COS0448 was in the middle of fast displacement and slow displacement.
The time point of crossover is identified by subtraction of the buffer response (Sensorgram 1) from the antibody (Ab) response (Sensorgram 2), and referring to the time point when the differential value changes from positive to negative (Table 4). The time from the start of Ab injection is indicated in Table 4 as “time point of crossover”.

Binder	Time point of crossover (post-injection)
B1	542 s
B2	736 s
B3	764 s
B4	61.9 s
B5	169 s
